Experimental data as given in US20220332804A1 (CSL INNOVATION, published 2022).
Changes are numbered by the printed parent chain.

Tests used:
Experiment in all cases: SPR, antibody captured, C2 as analyte;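 further: biacore SPR at 37 °C, anti-C2 mAbs captured via goat anti-human IgG on CM5 chips, double-referenced sensorgrams fit to a 1:1 kinetic or steady-state model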
human C2 L701A = target: T1, human C2 L701A (human, UniProt P06681 21-752)
T1 sequence: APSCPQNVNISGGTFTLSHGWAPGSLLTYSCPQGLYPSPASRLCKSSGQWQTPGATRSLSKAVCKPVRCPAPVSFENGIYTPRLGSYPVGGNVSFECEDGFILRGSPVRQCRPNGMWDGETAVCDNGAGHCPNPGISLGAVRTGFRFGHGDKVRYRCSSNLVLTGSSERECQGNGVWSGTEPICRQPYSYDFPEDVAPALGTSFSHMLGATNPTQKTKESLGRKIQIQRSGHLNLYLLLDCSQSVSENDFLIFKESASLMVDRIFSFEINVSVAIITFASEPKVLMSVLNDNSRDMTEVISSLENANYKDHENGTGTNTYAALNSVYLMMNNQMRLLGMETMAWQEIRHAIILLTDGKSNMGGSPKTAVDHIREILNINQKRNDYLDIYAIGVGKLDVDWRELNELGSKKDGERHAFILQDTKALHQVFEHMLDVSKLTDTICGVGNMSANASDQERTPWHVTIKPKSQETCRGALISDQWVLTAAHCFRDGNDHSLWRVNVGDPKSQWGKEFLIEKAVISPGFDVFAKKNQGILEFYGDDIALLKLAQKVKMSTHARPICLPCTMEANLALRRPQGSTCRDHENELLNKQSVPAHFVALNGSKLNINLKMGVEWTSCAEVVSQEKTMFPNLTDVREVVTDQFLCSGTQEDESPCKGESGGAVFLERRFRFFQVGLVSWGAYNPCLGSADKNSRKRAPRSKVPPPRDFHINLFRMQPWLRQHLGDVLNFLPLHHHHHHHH

human C2 K715A = target: T2, human C2 K715A (human, UniProt P06681 21-752)
T2 sequence: T1 sequence with A681L, K695A

human C2 L439A = target: T3, human C2 L439A (human, UniProt P06681 21-752)
T3 sequence: T1 sequence with L419A, A681L

human C2 D454A = target: T4, human C2 D454A (human, UniProt P06681 21-752)
T4 sequence: T1 sequence with D434A, A681L

B1: RF16-226 (antibody, human IgG4 S228P, lambda)
heavy: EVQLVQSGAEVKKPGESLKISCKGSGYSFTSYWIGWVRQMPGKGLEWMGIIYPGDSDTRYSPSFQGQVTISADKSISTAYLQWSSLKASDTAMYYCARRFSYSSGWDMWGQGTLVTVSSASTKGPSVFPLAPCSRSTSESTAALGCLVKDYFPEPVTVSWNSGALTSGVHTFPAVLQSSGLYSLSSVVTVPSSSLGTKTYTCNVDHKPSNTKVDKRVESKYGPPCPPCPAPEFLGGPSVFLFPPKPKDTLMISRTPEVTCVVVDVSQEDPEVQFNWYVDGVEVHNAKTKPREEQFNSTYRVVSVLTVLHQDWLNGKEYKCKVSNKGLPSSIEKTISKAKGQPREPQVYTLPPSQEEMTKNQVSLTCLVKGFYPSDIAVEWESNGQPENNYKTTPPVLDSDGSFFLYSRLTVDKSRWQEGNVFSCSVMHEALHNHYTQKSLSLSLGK
light: SYELTQPPSVSVSPGQTARITCSGDALTSKYVAWYQQKSGLAPLLVIYEDTRRPSGIPAKFSGSSSGSVATLTISGAHGDDEADYYCYSTDASGHQRVFGGGTKLTVLSQPKAAPSVTLFPPSSEELQANKATLVCLISDFYPGAVTVAWKADGSPVKAGVETTKPSKQSNNKYAASSYLSLTPEQWKSHRSYSCQVTHEGSTVEKTVAPTECS
notes: pH-dependent anti-C2 antibody from a phage display library; also called WT
Question: How did the Kd (human C2 L701A) turn out when B1 was run?
Answer: The Kd was 165 nM.

Question: What about the Kd (human C2 K715A) of the same binder?
Answer: The Kd was 16.2 nM.

Question: What about the Kd (human C2 L439A) of the same binder?
Answer: Its Kd is 118 nM.

Question: And the Kd (human C2 D454A)?
Answer: The Kd was 247 nM.
